The assay has as its target head domain of PPRV ICV'89 strain H protein (residues 156-610) (peste des petits ruminants virus, strain Ivory Coast'89 (ICV'89)). Briefly: SEC. In general terms: SEC sorts molecules by how far they enter the pores of the column.

As usually defined, the stoichiometry N is the number of molecules, sites or subunits per partner or assembly. Regarding “head domain of PPRV ICV'89 strain H protein (residues 156-610) (domain or fragment)”, the stoichiometry N came to 2.

These data come from publication PMC7889028.
